Substitutions are numbered along the chain they refer to.
How the values were obtained:
K458A = target: T1, K458A (Homo sapiens, UniProt P78325); test: high-throughput flow cytometry, HEK293 cells with mutant ADAM8, high stringency; range in parentheses; closed box
T1 construct: expressed on HEK293 cells; also called human ADAM8 point mutant K458A
T1 sequence (ADAM8, looked up): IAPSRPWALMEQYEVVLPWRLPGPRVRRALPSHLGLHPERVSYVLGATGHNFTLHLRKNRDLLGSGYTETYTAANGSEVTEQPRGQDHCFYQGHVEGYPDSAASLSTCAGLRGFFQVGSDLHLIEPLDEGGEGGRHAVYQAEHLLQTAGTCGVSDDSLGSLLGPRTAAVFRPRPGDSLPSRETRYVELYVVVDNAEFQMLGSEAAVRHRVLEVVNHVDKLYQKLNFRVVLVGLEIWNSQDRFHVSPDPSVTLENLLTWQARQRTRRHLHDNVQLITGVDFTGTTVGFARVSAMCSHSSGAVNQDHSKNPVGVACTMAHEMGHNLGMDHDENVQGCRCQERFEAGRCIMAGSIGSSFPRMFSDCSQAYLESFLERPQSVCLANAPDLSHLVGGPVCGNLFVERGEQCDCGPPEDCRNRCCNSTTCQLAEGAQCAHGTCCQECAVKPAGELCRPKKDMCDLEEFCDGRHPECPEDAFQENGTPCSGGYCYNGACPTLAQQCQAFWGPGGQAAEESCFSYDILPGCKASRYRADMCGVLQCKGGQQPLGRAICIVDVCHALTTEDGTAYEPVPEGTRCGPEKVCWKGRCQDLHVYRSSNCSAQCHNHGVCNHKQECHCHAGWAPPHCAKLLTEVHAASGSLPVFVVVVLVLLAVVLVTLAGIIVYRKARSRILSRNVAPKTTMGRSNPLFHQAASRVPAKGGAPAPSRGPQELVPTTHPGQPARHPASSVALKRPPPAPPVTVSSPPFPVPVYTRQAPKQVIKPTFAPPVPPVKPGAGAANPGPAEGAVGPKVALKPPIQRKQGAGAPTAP
Description: (§1) A variety of experimental parameters were optimized for high-throughput flow cytometry including blocking buffer, and primary and secondary antibody concentrations, to identify the optimal conditions for screening. Through these studies ADP2 and ADP13 were determined to be high affinity binding antibodies.
(§2) Thus, for these studies antigen-binding fragments (Fabs) of ADP2 and ADP13, which bind with lower affinity than the full antibody, were generated. In addition, higher binding stringency conditions were tested, such as increased pH, salinity, and temperature, and/or increased washing, to weaken binding sufficiently to allow identification of critical binding residues in flow cytometry. The final experimental flow cytometry conditions were: primary antibody incubation with ADP2 Fab (0.50 μg/ml), ADP13 Fab (5.00 μg/ml) and Control Ab (0.16 μg/ml) for 60 minutes in flow cytometry buffer containing 10% goat serum in PBS (Ca²⁺ and Mg²⁺ free). […] Samples were washed three times after primary antibody incubation and twice after secondary antibody incubation with PBS (Ca²⁺ and Mg′ free). Next, HEK293 cells expressing WT or mutated ADAM8 proteins or EV DNA were incubated with ADP2 or ADP13 Fabs or Control Ab at their optimal concentrations. Fab binding was detected using Alexa Fluor 488-conjugated secondary antibodies and mean cellular fluorescence determined using the Intellicyt iQue flow cytometry platform. […] This counter-screen strategy facilitates the exclusion of mutants that are locally misfolded or that have an expression defect. Binding of each test Fab to each mutant clone in the alanine scanning library was determined, in duplicate, by high-throughput flow cytometry.

G445A = target: T2, G445A (Homo sapiens, UniProt P78325); test: as above
T2 construct: expressed on HEK293 cells; also called human ADAM8 point mutant G445A
T2 sequence (ADAM8, looked up): T1 sequence (ADAM8, looked up) with G429A, A442K
Description: as §1, §2

B1: ADP13 Fab (Fab, V domains shown)
VH: EVQLQQSGPEMVKPGTSVKISCKASGYTFTDYYINWVKQSHGKSLEWIGDISPNIGGATYNPKFKGKAILTVDKSARTAYMELRSLTSEDSAVYCCTRGGSSYPYFYAMDYWGQGTSVTVSS
VL: DIVMSQSPSSLAVSVGEKVTMSCKSSQSLLYSSNQKKYLAWYQQKPGQSPKLLIYWASTRESGVPDRFTGSGSGTDFTLTISSVKAEDLAVYYCQQFYSYPYTFGGGTKLEINR
Binding Reactivity (% WT) (K458A): 13.5 % WT
Binding Reactivity (% WT) (G445A): 9.7 % WT

From patent US20220227882A1 (TRUSTEES OF TUFTS COLLEGE, published 2022)
